# Where two headings read alike, the source gives them in different places.
# Columns and labels:
# [1] = target: HLA-A*0301 (human)
# [2] = target: HLA-A*1101 (human)
binder,measurement,setting,value
FLKSNSQAK (modifications not checked) [HPV31 E1 372 … (A03 motif peptide)],relative binding ratio (IC50 of standard peptide / IC50 of test peptide) (ratio to standard peptide),[1],0.0013
GTTLEQQYNK (modifications not checked) [HPV16 E6 position 92 peptide …],binding affinity ratio (IC50 of the standard peptide / IC50 of the test peptide),[1],0.0002
"SMSQWIKYR (modifications not checked) [… (HPV16 E1, position 421, 9 amino acids)]",binding affinity ratio (IC50 of the standard peptide / IC50 of the test peptide),[2],0.028
"EVYDFAFR (modifications not checked) [EVYDFAFR (HPV16 E6, position 48, 8 amino acids)]",binding affinity ratio (IC50 of standard peptide / IC50 of test peptide) (ratio to standard peptide),[2],0.0025
GLSFTDLVR (modifications not checked) [HPV18 E1 223 …],binding affinity ratio (IC50 of standard peptide / IC50 of test peptide),[1],0.0009
"GTTLEQQYNK (modifications not checked) [… (HPV16 E6, position 92, 10 amino acids)]",binding affinity ratio (IC50 of standard peptide / IC50 of test peptide) (ratio to standard peptide),[2],0.07
"DCATMCRHYK (modifications not checked) [HPV16 E1 peptide … (position 404, 10 amino acids)]",relative binding ratio (IC50 of standard peptide / IC50 of test peptide) (ratio to standard peptide),[1],0.0044
FITFLGALK (modifications not checked) [HPV18 E1 460 …],binding affinity ratio (IC50 of standard peptide / IC50 of test peptide),[1],0.032
ALLRYKCGK (modifications not checked) [HPV45 E1 270 … (SEQ ID NO: 37205)],relative binding ratio (IC50 of standard peptide / IC50 of test peptide),[1],0.09
SVAALYWYR (modifications not checked) [HPV45 E1 308 peptide … (SEQ ID NO: 43764)],binding affinity ratio relative to standard peptide (A*1101),[2]; scale: ratio,8.8
SVAALYWYR (modifications not checked) [HPV18 E1 322-330 peptide …],binding affinity ratio relative to standard peptide (IC50 standard / IC50 test),[1],2.9
ALFTAQEAK (modifications not checked) [HPV16 E1 69 …],relative binding ratio (IC50 of standard peptide / IC50 of test peptide),[2],0.4
DCATMCRHY (modifications not checked) [HPV16 E1 404 …],relative binding ratio (IC50 of standard peptide / IC50 of test peptide),[2],0.0001
"NSNAAAFLK (modifications not checked) [HPV33 E1 379 peptide … (A11 motif peptide, 9 amino acids)]",relative binding ratio (IC50 of standard peptide / IC50 of test peptide),[2],0.37
TAAALYWYK (modifications not checked) [HPV16 E1 315 …],binding affinity ratio (IC50 of standard peptide / IC50 of test peptide),[1],0.78
"HDIILECVY (modifications not checked) [… (HPV16 E6, position 31)]",relative binding ratio (IC50 of standard peptide / IC50 of test peptide) (ratio to standard peptide),[1],0.0002
MLIQPPKLR (modifications not checked) [HPV31 E1 285 … (SEQ ID NO: 41814)],relative binding ratio (IC50 of standard peptide / IC50 of test peptide),[2],0.0014
CVYCKQQLLR (modifications not checked) [HPV16 E6 position 37 peptide …],binding affinity ratio (IC50 of the standard peptide / IC50 of the test peptide),[1],0.0001
"IILECVYCK (modifications not checked) [… (HPV16 E6, position 33, 9 amino acids)]",binding affinity ratio (IC50 of standard peptide / IC50 of test peptide) (ratio to standard peptide),[2],0.019
"CATMCKHYR (modifications not checked) [HPV18 E1 peptide … (position 412, 9 amino acids)]",binding affinity ratio (IC50 of standard peptide / IC50 of test peptide),[1],0.0012
"CVYCKQQLLR (modifications not checked) [… (HPV16 E6, position 37, 10 amino acids)]",binding affinity ratio (IC50 of standard peptide / IC50 of test peptide) (ratio to standard peptide),[2],0.0005
"RFHNIAGHY (modifications not checked) [HPV18 E6 peptide … (position 126, 9 amino acids)]",relative binding ratio (IC50 of standard peptide / IC50 of test peptide),[1],0.0005
"KFYSKISEY (modifications not checked) [… (HPV16 E6, position 75)]",relative binding ratio (IC50 of standard peptide / IC50 of test peptide) (ratio to standard peptide),[1]; remark: other sources report otherwise,0.0015
"VVYRDSIPH (modifications not checked) [HPV18 E6 peptide … (position 54, 9 amino acids)]",relative binding ratio (IC50 of standard peptide / IC50 of test peptide),[1],0.12
"MLIQPPKLR (modifications not checked) [… (HPV18 E1, position 312, 9 amino acids)]",binding affinity ratio (IC50 of standard peptide / IC50 of test peptide),[1],0.0005
CTELQTTIH (modifications not checked) [HPV16 E6 position 23 peptide …],binding affinity ratio (IC50 of the standard peptide / IC50 of the test peptide),[1],0.0002
"TGLYNLLIR (modifications not checked) [HPV18 E6 peptide … (position 96, 9 amino acids)]",relative binding ratio (IC50 of standard peptide / IC50 of test peptide),[1],0.0005
SVAALYWYR (modifications not checked) [HPV45 E1 308 peptide … (SEQ ID NO: 37559)],relative binding ratio (IC50 of standard peptide / IC50 of test peptide),[1],2.9
"MLIQPPKLR (modifications not checked) [HPV31 E1 peptide … (position 285, 9 amino acids)]",relative binding ratio (IC50 of standard peptide / IC50 of test peptide) (ratio to standard peptide),[1],0.0005
"LIRCINCQK (modifications not checked) [… (HPV16 E6, position 107)]",relative binding ratio (IC50 of standard peptide / IC50 of test peptide) (ratio to standard peptide),[1],0.0025
DIILECVYCK (modifications not checked) [HPV16 E6 position 32 peptide …],binding affinity ratio (IC50 of the standard peptide / IC50 of the test peptide),[1],0.0065
